Results as given in US11278600B2, “Human alpha-galactosidase variants” (Codexis, Inc., priority 2014, dated 2022).

Assays:
Type in all cases: biochemical
[1] = HTP-analysis of supernatants pretreated with bovine serum (MUGal hydrolysis); conditions: activity of the variant/activity of Rd3BB (SEQ ID NO: 13), yeast culture supernatant
Method in brief: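 Yeast INVSc1 culture supernatants containing secreted GLA variants were mixed with bovine serum (20:80) and held 1 h at 37° C. Serum-treated samples then reacted with MUGal (4 mM stock) in citrate/McIlvaine buffer (pH 4.3/4.8) for 180 min at 37° C., were quenched with sodium carbonate, and read by fluorescence (Ex 355, Em 448 nm).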

[2] = HTP-analysis of supernatants pretreated with base (MUGal hydrolysis); conditions: challenge at pH 8.2; activity of the variant/activity of Rd3BB (SEQ ID NO: 13); yeast culture supernatant
Method in brief: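 Supernatants from INVSc1 yeast expressing GLA variants (SD-Ura, 66-84 h, 30° C) were mixed with McIlvaine buffer pH 7.0-8.2 or 200 mM sodium bicarbonate pH 9.1-9.7 and held 1-18 h at 37° C. Residual activity was then measured on MUGal at pH 4.8/4.3, 37° C, 30-180 min, by fluorescence (Ex 355/Em 448 nm).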

[3] = HTP-analysis of yeast culture supernatants, no challenge (MUGal hydrolysis); conditions: activity of the variant/activity of Rd3BB (SEQ ID NO: 13), yeast culture supernatant
Method in brief: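 GLA variants were expressed in INVSc1 yeast grown in SD-Ura broth with glucose at 30° C., and culture supernatants were collected after 66-84 h. Supernatant was mixed with McIlvaine buffer pH 4.8 and MUGal (2 mM stock) in 50 mM citrate, 200 mM KCl, pH 4.6, incubated at 37° C. for 30-180 minutes, then quenched with sodium carbonate.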

[4] = HTP-analysis of supernatants pretreated with acid (MUGal hydrolysis); conditions: challenge at pH 4.0; activity of the variant/activity of Rd3BB (SEQ ID NO: 13); yeast culture supernatant
Method in brief: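 Fluorescence of MUGal hydrolysis (Ex. 355 nm, Em. 448 nm) is read after sodium carbonate quench. The enzyme source is INVSc1 yeast culture supernatant, first exposed to pH 3.3-4.3 McIlvaine buffer at 37° C. for 1-3 h, then reacted at pH 4.8 for 30-180 minutes.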

Row | Molecule | Relative Activity of GLA Variants After Challenge with Serum [1] | Relative Activity of GLA Variants After Challenge at pH 8.2 [2] | Relative Activity of GLA Variants After No Challenge (NC) [3] | Relative Activity of GLA Variants After Challenge at pH 4.0 [4]
1 | 354 (protein, Synthetic Polypeptide sequence of Variant No. 354 of mature Human GLA) LDNGLARTPTMGWLHWERFMCNLDCQEEPDSCISEKLFMEMAERMVSEGWKDAGYEYLCIDDCWMAPQRDSEGRLQADPQRFPHGIRQLANYVHSKGLKFGIYADVGNKTCAGFPGSFGYYDIDAQTFADWGVDLLKFDGCYCDSLENLADGYKHMSLALNRTGRSIVYSCEWPLYMWPFQKPNYTEIRQYCNHWRNFADIDDSWASIKSILDWTSFNQETIVDVAGPGGWNDPDMLVIGNFGLSWNQQVTQMALWAIMAAPLFMSNDLRHISPQAKALLQDKDVIAINQDPLGKQGYQLRQGDNFEVWERPLSGLAWAVAIINRQEIGGPRSYTIAVASLGKGVACNPACFITQLLPVKRKLGLYNWTSRLKSHINPTGTVLLQLENTMQMSLKDLL | + (+ = 0.5 to 1.5 relative activity over Rd3BB (SEQ ID NO: 13)) | + (+ = 0.5 to 1.5 relative activity over Rd3BB (SEQ ID NO: 13)) | − (− = <0.5 relative activity to Rd3BB (SEQ ID NO: 13)) | + (+ = 0.5 to 1.5 relative activity over Rd3BB (SEQ ID NO: 13))
2 | 355 (protein, Synthetic Polypeptide sequence of Variant No. 355 of mature Human GLA) LDNGLARTPTMGWLHWERFMCNLDCQEEPDSCISEKLFMEMAERMVSEGWKDAGYEYLCIDDCWMAPQRDSEGRLQADPQRFPHGIRQLANYVHSKGLKFGIYADVGNKTCAGFPGSFGYYDIDAQTFADWGVDLLKFDGCYCDSLENLADGYKHMSLALNRTGRSIVYSCEWPLYMWPFQKPNYTEIRQYCNHWRNFADIDDSWASIKSILDWTSFNQETIVDVAGPGGWNDPDMLVIGNFGLSWDQQVTQMALWAIMAAPLFMSNDLRHISPQAKALLQDKDVIAINQDPLGKQGYQLRQGDNFEVWERPLSGLAWAVAIINRQEIGGPRSYTIAVASLGDGVACNPACFITQLLPVKRKLGFYNWTSRLKSHVNPTGTVLLQLENTMQMSLKDLL | + (+ = 0.5 to 1.5 relative activity over Rd3BB (SEQ ID NO: 13)) | ++ (++ = >1.5 to 2.5 relative activity over Rd3BB (SEQ ID NO: 13)) | + (+ = 0.5 to 1.5 relative activity over Rd3BB (SEQ ID NO: 13)) | ++ (++ = >1.5 to 2.5 relative activity over Rd3BB (SEQ ID NO: 13))
3 | 356 (protein, Synthetic Polypeptide sequence of Variant No. 356 of mature Human GLA) LDNGLARTPTMGWLHWERFMCNLDCQEEPDSCISEKLFMEMAERMVSEGWKDAGYEYLCIDDCWMAPQRDSEGRLQADPQRFPHGIRQLANYVHSKGLKFGIYADVGNKTCAGFPGSFGYYDIDAQTFADWGVDLLKFDGCYCDSLENLADGYKHMSLALNRTGRSIVYSCEWPLYMWPFQKPNYTEIRQYCNHWRNFADIDDSWASIKSILDWTSFNQETIVDVAGPGGWNDPDMLVIGNFGLSWDQQVTQMALWAIMAAPLFMSNDLRHISPQAKALLQDKDVIAINQDPLGKQGYQLRKGDNFEVWERPLSGLAWAVAIINRQEIGGPRSYTIAVASLGKGVACNPACFITQLLPVKRKLGFYNWTSRLKSHINPTGTVLLQLENTMQMSLKDLL | + (+ = 0.5 to 1.5 relative activity over Rd3BB (SEQ ID NO: 13)) | ++ (++ = >1.5 to 2.5 relative activity over Rd3BB (SEQ ID NO: 13)) | + (+ = 0.5 to 1.5 relative activity over Rd3BB (SEQ ID NO: 13)) | + (+ = 0.5 to 1.5 relative activity over Rd3BB (SEQ ID NO: 13))
